# Source: the RNAGym collection of RNA variant scans (doi:10.1073/pnas.2313332121)
# Fewer inactive variants are shown than the library holds.
# B1: TPR 5TU (parent)
# chain: GGAUCUUCUCGAUCUAACAAAAAAGACAAAUCUGCCACAAAGCUUGAGAGCAUCUUCGGAUGCAGAGGCGGCAGCCUUCGGUGGCGCGAUAGCGCCAACGUUCUCAACUAUGACACGCAAAACGCGUGCUCCGUUGAAUGGAGUUUAUCAUG
# Variants of: B1
# Assay: polymerase ribozyme fitness, log enrichment relative to wild type (log ratio); higher = more active; in vitro selection for triplet polymerase activity
# Method in brief: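 Fitness is a logarithmic measure of how a genotype enriched relative to the wild type, with replicate averages weighted by inverse variance. The logarithm uses base 2, and enrichment came from Illumina sequencing of input and output libraries. Those libraries were PCR-built, transcribed mutants of each subunit of a heterodimeric triplet polymerase ribozyme, passed through one triplicate in vitro selection round that included frozen incubation at −7 °C, gel excision of extended constructs and streptavidin-bead capture. Genotypes were kept only if they had ≥10 input reads and ≥1 read per output.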
row,Variant,polymerase ribozyme fitness (log ratio)
1,A49G G92C,-2.39
2,A49G G92A,-3.9
3,G48C G84A,-3.2
4,A47C C51U A52C C75A C96U C103A A110C,≤ -4.2
5,G48C C57A C72G,≤ -4.2
6,A49U U82G C105U C116U U145A,-2.58
7,A49C A106U,-3.68
8,A47G G94U A147G,≤ -4.2
9,A47C U53C C95A U104G A119U G136U,-3.11
10,A49G C57U,-0.525
11,G48A G62A G68C C105U G126A G136C G141U U145G,≤ -4.2
12,A47C G83A A122C,-1.08
13,A49G C63U C85U,-0.955
14,G46U C96U A142G,-1.19
15,A47G A91G,-2.73
16,A47C A60G A107U,-3.3
17,A47G U53C U134G,-3.45
18,A49U U61C G70A G92U,≤ -4.2
19,A49C G50C C54G G70A C87G A89G C103U,≤ -4.2
20,G50A A52C U55G G141C,≤ -4.2
21,G48U G80U C96G,≤ -4.2

row,Variant,polymerase ribozyme fitness (log ratio)
1,A49U U56G C57U C96U U102G,-1.32
2,A47G C85A C93A A98C A121U,-4.11
3,A47C U55A,0.201
4,A49G G50C U77A G92A C103G G117U,≤ -4.2
5,G48U C95U,-1.01
6,G50A C51U U55G G84A G128A C131G U135C,≤ -4.2
7,A47U U148C,-2.46
8,A47G A73U,-1.81
9,A47C G80A C95U U104G A120G,-0.454
10,G46U G50C A73G C76G A113U U139C,≤ -4.2
11,G48A C54U G84A G92U C99G U109G G133C,≤ -4.2
12,A47C G83A G92U C108U,≤ -4.2
13,A49U U148C,-3.02
14,A49C A52U C132G,≤ -4.2
15,G48C C75G C87G A91C C103G U134G U135C,≤ -4.2
16,A49U A138U,≤ -4.2
17,G48C G62A,-3.59
18,A49C A52G G81A C87U U102C C114G A150G,≤ -4.2
19,A49U G59C A73G A119C U134G G136A,-3.39
20,A47G C69U,-1.14
21,A47G C69G,-1.95

row,Variant,polymerase ribozyme fitness (log ratio)
1,A47C G58U G92U A97U,-1.96
2,A49G U53A C54U,-2.09
3,A47C U104G G124U,-0.000534
4,A49U G92U,-0.559
5,A49U G58U U78A C96G C103U U135A,≤ -4.2
6,A47C C85A,-2.92
7,A47C G50A,-1.47
8,A47C C76A C87G C96U A115G,≤ -4.2
9,G46U,-0.0995
10,A47C,-0.224
11,A47U,-0.143
12,A47G,0.239
13,A49U G50U U53G A106U A122G,≤ -4.2
14,A49G A115U,-2.35
15,A49G C51G U78C C96G G136A,≤ -4.2
16,A47G C93U,-0.775
17,A47C G136A,0.0265
18,A49C U148A,≤ -4.2
19,A49C C76G C95U C114A G143U,≤ -4.2
20,A49G A60U U78C C95A A142C,≤ -4.2
21,A49U C75U G80A C96U A97C U145A U146G U148G,≤ -4.2

row,Variant,polymerase ribozyme fitness (log ratio)
1,A47C C79U G83A C87U C99A C103U,-4.14
2,A47C C99U A122U G141A,-3.39
3,A49U G50C C57U A89C C96A,-3.23
4,G46C G68A,-4.14
5,A49G G50C G71A A91U U151A,≤ -4.2
6,G48U G74A C85G A115C U134A,≤ -4.2
7,A47C C72U G94U U102C,≤ -4.2
8,A47G G83C C87G G112U A120C C125A G136U,≤ -4.2
9,G48U U55G,-0.894
10,G48A C54G C57U G81A C95U A115U C131A U146G G152U,≤ -4.2
11,G50A A142U,-2.45
12,A47U U61G U134A,-3.8
13,A49U C85U U148A,≤ -4.2
14,A49C C87G,≤ -4.2
15,A49C C103A U139A,≤ -4.2
16,G48U G86C,-3.31
17,G48C G58U C105G C114G U135C,≤ -4.2
18,A49U G74A C79A U90A G94A C123G G133U,≤ -4.2
19,G50A C54G C116U,-2.17
20,G48A C54U G86C A106C,≤ -4.2
21,A47C U104G,-0.804
